Data on 1 substance can be found in article PMC4359589.

The target in this experiment is VipB (Vibrio cholerae). The experiment can be described thus: cryo-EM structure.

As usually defined, the stoichiometry N is the number of molecules, sites or subunits per partner or assembly. As to VipA (natural protein), the stoichiometry N was 1.
